Results taken from patent US20260008815A1, “CYCLIC PEPTIDE OR SALT THEREOF, AND USES THEREOF” (FUJIFILM Corporation, priority 2023, published 2026).
Bridge positions count the residues as written; N and C are the ends. Square brackets hold non-standard residues; d marks the D form. Primed or numbered codes have the meaning given here. Ends that are not written are not given here. acetyl″ = bridging -C(=O)-CH2- from a haloacetyl (chloroacetyl) group on the side-chain amine of K/Orn/Dab/Dap, the thiol sulfur replaces the halogen on its CH2 (X(acetyl) notation); COCH2 = acetyl group that carries the bridge; hCys = N[C@@H](CCS)C(=O)O

B1: cyclic peptide SEQ ID NO: 435 (peptide)
peptide: QXPQNFINPVQWRYFQHYXNKKK
modifications: not fully specified; thioether ring (Hcy)-(Dab(acetyl))
notes: chemically synthesized
B2: cyclic peptide SEQ ID NO: 439 (peptide)
peptide: QXPQNFINPVQWRYFQHYXNKKK
modifications: not fully specified; thioether ring (Orn(acetyl))-(Hcy)
notes: chemically synthesized
B3: cyclic peptide SEQ ID NO: 441 (peptide)
peptide: QXPQNFINPVQWRYFQHYXNKKK
modifications: not fully specified; thioether ring (Dap(acetyl))-(Hcy)
notes: chemically synthesized
B4: cyclic peptide SEQ ID NO: 446 (peptide)
peptide: YKEENYLDPEQYQYFIYFXYKKK
modifications: thioether ring (K(acetyl))-(Hcy)
notes: chemically synthesized
B5: cyclic peptide SEQ ID NO: 447 (peptide)
peptide: YXEENYLDPEQYQYFIYFXYKKK
modifications: not fully specified; thioether ring (Orn(acetyl))-(Hcy)
notes: chemically synthesized
B6: cyclic peptide SEQ ID NO: 449 (peptide)
peptide: YXEENYLDPEQYQYFIYFXYKKK
modifications: not fully specified; thioether ring (Dap(acetyl))-(Hcy)
notes: chemically synthesized
B7: cyclic peptide SEQ ID NO: 433 (peptide)
peptide: Q[hCys]PQNFINPVQWRYFQHYK(COCH2)NKKK
modifications: thioether 2-19 via acetyl″
notes: chemically synthesized
B8: cyclic peptide SEQ ID NO: 451 (peptide)
peptide: YCEENYLDPEQYQYFIYFCYKKK
modifications: disulfide 2-19 (inferred)
notes: chemically synthesized
B9: cyclic peptide SEQ ID NO: 438 (peptide)
peptide: QK(COCH2)PQNFINPVQWRYFQHY[hCys]NKKK
modifications: thioether 2-19 via acetyl″
notes: chemically synthesized
B10: cyclic peptide SEQ ID NO: 437 (peptide)
peptide: QK(COCH2)PQNFINPVQWRYFQHY[hCys]NKKK
modifications: thioether 2-19 via acetyl″
notes: chemically synthesized
B11: cyclic peptide SEQ ID NO: 434 (peptide)
peptide: QXPQNFINPVQWRYFQHYXNKKK
modifications: not fully specified; thioether ring (Hcy)-(Orn(acetyl))
notes: chemically synthesized
B12: cyclic peptide SEQ ID NO: 454 (peptide)
peptide: XHENYLDPEQYQYFHYFKYKKK
modifications: thioether ring (Hcy)-(K(acetyl))
notes: chemically synthesized
B13: cyclic peptide SEQ ID NO: 444 (peptide)
peptide: YXEENYLDPEQYQYFIYFXYKKK
modifications: not fully specified; thioether ring (Hcy)-(Dab(acetyl))
notes: chemically synthesized
B14: cyclic peptide SEQ ID NO: 440 (peptide)
peptide: QXPQNFINPVQWRYFQHYXNKKK
modifications: not fully specified; thioether ring (Dab(acetyl))-(Hcy)
notes: chemically synthesized
B15: cyclic peptide SEQ ID NO: 443 (peptide)
peptide: YXEENYLDPEQYQYFIYFXYKKK
modifications: not fully specified; thioether ring (Hcy)-(Orn(acetyl))
notes: chemically synthesized
B16: cyclic peptide SEQ ID NO: 448 (peptide)
peptide: YXEENYLDPEQYQYFIYFXYKKK
modifications: not fully specified; thioether ring (Dab(acetyl))-(Hcy)
notes: chemically synthesized

Target: T1, Recombinant Human FGFR2 alpha (IIIc) Fc Chimera Protein, CF (R&D systems, 712-FR-050) (human, UniProt P21802 22-377)
T1 construct: bought; not shown: Fc part of the chimera
T1 sequence (P21802 22-377, change not shown): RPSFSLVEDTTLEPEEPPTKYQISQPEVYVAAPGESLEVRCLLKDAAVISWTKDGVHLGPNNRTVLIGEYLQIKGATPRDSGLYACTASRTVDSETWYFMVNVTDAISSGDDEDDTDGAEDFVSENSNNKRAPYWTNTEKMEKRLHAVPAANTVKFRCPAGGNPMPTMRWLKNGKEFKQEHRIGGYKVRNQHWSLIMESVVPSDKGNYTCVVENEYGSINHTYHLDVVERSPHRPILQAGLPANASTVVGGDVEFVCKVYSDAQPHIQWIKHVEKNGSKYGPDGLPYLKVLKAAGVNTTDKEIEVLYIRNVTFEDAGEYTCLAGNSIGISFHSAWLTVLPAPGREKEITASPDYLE
Experiment: SPR, 10 nmol/L peptide over immobilized FGFR2-Fc
Method: A CM5 sensor chip (Cytiva, 29149603) was set in Biacore-T200 (manufactured by Cytiva) which is a surface plasmon resonance device, and an HBS-EP buffer (Cytiva, BR100826) was added as a running buffer at a flow rate of 10 μL/min to equilibrate the flow channel. Next, 70 μL of a mixed aqueous solution of 0.2 mol/L 1-(3-dimethylaminopropyl)-3-ethylcarbodiimide (EDC) and 0.05 mol/L N-hydroxysuccinimide (NHS) was added to activate the sensor chip. Then, Recombinant Human FGFR2 alpha (IIIc) Fc Chimera Protein CF (R&D systems, 712-FR-050) prepared at 50 nmol/L in an Acetate 4.5 buffer (Cytiva, BR100350) was added thereto to perform immobilization at about 5000 RU. Thereafter, the blocking treatment was performed with an ethanolamine solution. In addition, in another flow channel of the same sensor chip, blocking treatment was performed immediately after activation without immobilizing FGFR.
A cyclic peptide diluted to 10 nmol/L using HBS-EP was added to each flow channel of the FGFR-immobilized sensor chip produced above at 25° C. for 10 minutes, then HBS-EP was allowed to flow as a running buffer for 30 minutes, and the binding of the cyclic peptide to FGFR was measured. Thereafter, a regeneration treatment of removing the bound cyclic peptide was performed by repeating the flow of a regeneration liquid in which sodium chloride powder was dissolved in Glysine 1.5 (Cytiva, BR100354) to a final concentration of 0.15 mol/L for 1 minute in each flow channel twice. The binding amount of the cyclic peptide was evaluated from the difference between the measured value of Biacore-T200 in the flow channel in which FGFR was immobilized and the measured value of Biacore-T200 in the flow channel in which FGFR was not immobilated, in a case where a 10 nmol/L cyclic peptide was allowed to flow.

Row | Binder | binding amount (SPR, cyclic peptide molecules bound per FGFR molecule at 10 nmol/L peptide)
1 | B1 | ≥ 0.7 moleculesofthecyclicpeptide/onemoleculeoffgfr
2 | B2 | ≥ 0.7 moleculesofthecyclicpeptide/onemoleculeoffgfr
3 | B3 | ≥ 0.7 moleculesofthecyclicpeptide/onemoleculeoffgfr
4 | B4 | ≥ 0.7 moleculesofthecyclicpeptide/onemoleculeoffgfr
5 | B5 | ≥ 0.7 moleculesofthecyclicpeptide/onemoleculeoffgfr
6 | B6 | ≥ 0.7 moleculesofthecyclicpeptide/onemoleculeoffgfr
7 | B7 | ≥ 0.7 moleculesofthecyclicpeptide/onemoleculeoffgfr
8 | B8 | < 0.1 moleculesofthecyclicpeptide/onemoleculeoffgfr
9 | B9 | ≥ 0.7 moleculesofthecyclicpeptide/onemoleculeoffgfr
10 | B10 | ≥ 0.7 moleculesofthecyclicpeptide/onemoleculeoffgfr
11 | B11 | ≥ 0.7 moleculesofthecyclicpeptide/onemoleculeoffgfr
12 | B12 | 0.1 to 0.5 moleculesofthecyclicpeptide/onemoleculeoffgfr
13 | B13 | 0.5 to 0.7 moleculesofthecyclicpeptide/onemoleculeoffgfr
14 | B14 | ≥ 0.7 moleculesofthecyclicpeptide/onemoleculeoffgfr
15 | B15 | ≥ 0.7 moleculesofthecyclicpeptide/onemoleculeoffgfr
16 | B16 | ≥ 0.7 moleculesofthecyclicpeptide/onemoleculeoffgfr
